Where “and” joins values, the source holds several entries; their conditions need not be identical. Equal values may be shown once.
How the values were obtained:
[1] = biological target: T1, derCD23 (human); test: SPR; N-terminally His-tagged IgE-Fc captured with an anti-His-tag antibody (Biacore His Capture Kit); derCD23 injected at 10 to 0.156 uM; HBS-P with 5 mM CaCl2, 25 °C; conditions: both partners purified
T1 construct: human CD23 (FcεRII), soluble monomeric fragment called derCD23; also called soluble, monomeric CD23 construct; soluble fragment of CD23
T1 sequence (P06734 whole entry, looked up): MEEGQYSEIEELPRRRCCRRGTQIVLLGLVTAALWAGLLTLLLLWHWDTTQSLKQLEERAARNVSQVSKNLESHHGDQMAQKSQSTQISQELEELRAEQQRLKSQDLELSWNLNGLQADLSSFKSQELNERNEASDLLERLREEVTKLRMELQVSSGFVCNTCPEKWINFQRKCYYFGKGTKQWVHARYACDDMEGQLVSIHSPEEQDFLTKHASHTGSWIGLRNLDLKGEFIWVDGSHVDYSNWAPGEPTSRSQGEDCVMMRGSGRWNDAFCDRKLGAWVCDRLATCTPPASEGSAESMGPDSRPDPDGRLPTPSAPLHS

[2] = biological target: T2, 8D6 Fab; test: SPR; Biacore T200; 8D6 Fab amine-coupled to a CM5 chip; His-tagged IgE-Fc injected at 100 nM to 190 pM (2-fold dilutions) in HBS-P (10 mM HEPES pH 7.4, 150 mM NaCl, 0.005% surfactant P20), 30 uL/min; constants from low and intermediate concentrations; conditions: both partners purified
T2 construct: In SPR it was amine-coupled to a CM5 chip or injected as analyte; also called recombinant 8D6 Fab; anti-IgE antibody Fab (8D6)
T2 sequence (heavy, as listed by the source, chain 1 of 2): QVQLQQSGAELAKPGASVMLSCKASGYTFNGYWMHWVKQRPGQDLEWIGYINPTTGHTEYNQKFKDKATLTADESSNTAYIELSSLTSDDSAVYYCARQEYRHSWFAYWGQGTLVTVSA
T2 sequence (light, as listed by the source, chain 2 of 2): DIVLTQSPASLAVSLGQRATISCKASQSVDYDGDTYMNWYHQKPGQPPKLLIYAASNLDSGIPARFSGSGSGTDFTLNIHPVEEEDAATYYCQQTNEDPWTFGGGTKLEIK

B1: His-tagged IgE-Fc (domain or fragment)
chain: VASRDFTPPTVKILQSSCDGGGHFPPTIQLLCLVSGYTPGTIQITWLEDGQVMDVDLSTASTTQEGELASTQSELTLSQKHWLSDRTYTCQVTYQGHTFEDSTKKCADSNPRGVSAYLSRPSPFDLFIRKSPTITCLVVDLAPSKGTVQLTWSRASGKPVNHSTRKEEKQRNGTLTVTSTLPVGTRDWIEGETYQCRVTHPHLPRALMRSTTKTSGPRAAPEVYAFATPEWPGSRDKRTLACLIQNFMPEDISVQWLHNEVQLPDARHSTTQPRKTKGSGFFVFSRLEVTRAEWEQKDEFICRAVHEAASPSQTVQRAVSVNPGK
modifications: disulfide-linked homodimer; N-glycosylated at Asn394 (high-mannose); N-terminal 6xHis/Xpress tag omitted; C225A, N265Q and N371Q taken as already in the deposited entity; C-terminal end taken from …
Kd [1]: 1800 nM and 1700 nM and 1600 nM
Kd [2]: ~0.02 nM
koff [2]: 8e-05 s⁻¹
kon [2]: 5e+06 M⁻¹ s⁻¹

From article PMC6070508, “Structural basis for selective inhibition of immunoglobulin E-receptor interactions by an anti-IgE antibody” (Scientific Reports, 2018)
